Test: soluble on expression in E. coli; label from the status in PepcDB or PDB records
For “MTVQIENEFLIATFAEEGAELVSLQSKETGIEYIWQGNPEFWARHAPVLFPIVGRLKEDTYMYQNQAYHLTQHGFARDQVFDVIEKGGEEVSFSLKSTKETKKKYPFDFELVITYTLEHQELTVNYQVEYTGKEEMYFGIGGHPAFNVPLESSLTFEDYYLSFSPKKSRTQIPLAGPFIDLANKTLAQTNTSFDLTHQLFENDAMIFETKGQTAITIATDESDHQVTLSYPEMPFVGIWSPTPKEAPFVCIEPWCGIADAVDATGQLAEKFGINKLPANELFKTQYMISVKLEHHHHHH”, the “soluble on expression in E. coli” value was “not soluble”. In the case of “MVESQFEQDSQISTDSPLVLVKAAEKTSAIQQLLDYISNYQMISSNSIPIKSMDKIMMLKLDDIILVDVNQTTLKIYTLTGVFTTTETLVHFANRLNKSNFIQISKHALINLDHLESLSDSFSGNMMAKLSSNIKSSVSRKYVKGLMTQLGI”, the “soluble on expression in E. coli” value is reported as “not soluble”. For “GPLGSHENCQSPSMKRSRCTNYSFRTLTLSTAEYTKVVEFLAREAKVPRYTWVPTQVVSHILPTEGLERFLTAIKAGHDSVLFNANGIYTMGDMIREFEKHNDIFERIGIDSSKLSKYYEAFLSFYRIQEAMKLPK”, the “soluble on expression in E. coli” value was “soluble”. For “MSLSDKTMTADEAVSRLRSGMTLGIGGWGSRRKPMALVRALLRSGITDLTVVSCGGPDVGMLAAAGRIRKLVAAFVTLDSIPLEPHYRAARERGALELMEIDEAMFLWGLRAAAGRLPFLPVRAGIGSDVMRVNPGLRTITSPYVDGETFVAMPALRLDAALVHLNRADRLGNGQYLGPDPYFDDLFCEAADTAYVSCERVVDTAELTKEAAPQTLLVKRHTVTGVVEAPNGADFTSCVPDYGRDEALQRYYATTPWPEFAERFLGGGEPAYRSAVQDWRKEREGHHHHHH”, the “soluble on expression in E. coli” value was “soluble”. For “MPFSFFSRKKPSRRFNDFYEDWSKTLTENCLPLLRQSLSSAASASVLSSNVDLVLRHLVLYYETLDLAADHNTIPYLLFPSWRNSLETPFLFLGDIHPYLLTNLLRSFIDRENQDSDDEDEETSLDLVNQPLKMTMAWKDPSDELVKRIDQIECTMRLMVPGLMDRMRKTQRSFVARVSESWVSSYQVGKKKKLTATVATASTSVDEAAKIEMEELVSIFVDANRLRKSVIMDIVGATSEHQAALFLEGLCQFLAGFKDQILLQDFEILSLPN”, the “soluble on expression in E. coli” value was “soluble”. For “MHMSFDGMFTYGMTHELNEKIMGGRITKIHQPYKHDVIFHIRAKGKNQKLLLSAHPSYSRVHITAQAYENPSEPPMFCMLLRKHIEGGFIEKIEQAGLDRIMIFHIKSRNEIGDETVRKLYVEIMGRHSNIILTDAAENVIIDGLKHLSPSMNSYRTVLPGQDYKLPPAQDKISPLEASEDDILRHLSFQEGRLDKQIVDHFSGVSPLFAKEAVHRAGLANKVTLPKALLALFAEVKEHRFIPNITTVNGKEYFYLLELTHLKGEARRFDSLSELLDRFYFGKAERDRVKQQAQDLERFVVNERKKNANKIKKLEKTLEYSENAKEFQLYGELLTANLYMLKKGDKQAEVINYYDEESPTITIPLNPNKTPSENAQAYFTKYQKAKNSVAVVEEQIRLAQEEIEYFDQLIQQLSSASPRDISEIREELVEGKYLRPKQQKGQKKQKP”, the “soluble on expression in E. coli” value was “soluble”. With “LVDGSLCELRYSWAKIDTYQHVNNFITLNQVKIALAQSRCHNHHLDSTTITVWYDSAFSVMRDLKGIGANHVSGRSHGLTSRRTLLQVERAYQAFKNDQGLLPATYQVCFGVIHL” the “soluble on expression in E. coli” value was “not soluble”. For “MGSDKIHHHHHHMASPINESRIGYLYEAVRSGTVRAAADYLDVAPSAVSRQIALLEEELAIALVERNKRGVRPTEAGALLIEYFRQQRSHQGDLVAKLQEIRGLRRGTIVVVMGEGFASTMVGGPIKQFCEAYPEISITMDLCSTNEVMRRVSEDEADIGLVFNPSSDSKIVSRAGSRQPMHAIVSPAFPLVGKVKSVTLQDLMPYPMALTHPEHGTRRLVDAAMLLDKVRLTPAITTNSVNVLKLFAKSNLGFTLLAPIAIAPELAAGELVALPVDNRLLESSEAHLVTRAGRQLSPAANRLLNRLKAQIHKYDEYGAESGGQASLATQ”, the “soluble on expression in E. coli” value was “not soluble”. For “MSNTERTFIAIKPDGVHRGLVGKIIARFEERGYKLVALKQMTASKAHLEVHYQDLKDKPFFPSLIEYMSSGPVVAMVWQGLDVVKQGRSMLGATNPLASAPGTIRGDFCIQTGRNICHGSDAVDSANREIAHWFKQEEINDYASPFINSWVYE”, the “soluble on expression in E. coli” value was “not soluble”. With “MDKLKVAELFAGVGGFRLGLENTKEKIFDVTWANQWEPSKKIQHAFDCYNSRFITGEHVNKDIALISDEEIANTKADMVVGGFPCQDYSVARSLSGELGIQGKKGVLFWQIIRFIQNTYPKYLLLENVDRLLKSPSSQRGRDFGVMLSTLNELGYNVEWRVINAADYGNAQRRRRVFIFGYKQDLEHHHHHH” the “soluble on expression in E. coli” value was “soluble”. In the case of “MARNPRTTVRRILNSAPRSLLIQSVTIVALDPTDNNHGSHQPGSNGPSNSSTQADNFETETTADEERQKEDGVEDELEDEETTGFIDEDGEIRYPVDEVGNYEIDQEAETDESFYLDTQRDSSLCDERSQLCRSLSDQNLRTTFFLITTTNSKAAILRYLHFHNVSQDSILRKLLLNDSHLTLVEVCNLCAQNIELCKCEDMQEKCQLIFGDLKKWLEVILNSFANIMMKTKTTILEGYNSSSPINKGIFKKKLLSEMADNEMWMHFESSFDGIKVHKNGNQNIWPYSLLNLDLEDVHRASPQALILAALFIGFKNPTTKIHDRLTQWILLQMDEHVFFSEGVAWKADLTCANHDDPARRIVYNQCGLRSSGSCNFCLNQETECKINDEYTTLRENLTGSCPSTMNDGLRQRNQHSHFHKHVLYMHLCPVTSNARMLPKRVHFSALFSKGKWNLFPSKSVDFSSTPSLPSRFRSLSGKASQCTGSEKALSIVVAAAFSGELGGVSSAIILSIHGLYRLCIEPQSITDETLHLKIEQISKSIEVLIVKRAPEMLNGIKVHQVLYHLARMTELYGSLFPLSTQWFEYFYHTIQRTLVPEIYNGLGMSIMRKMSALQEIKTEAAFRLHTNHQFRTEANLKMCYELGLLRRLKRISVVPTPPQYQQFCETGDVFLNVVYHDGIRYSNYCNKKTDDSNVTFIEYARVRFAKIIGMLLKENNTDLRFILKKYCNTNDHLIDISNKLYEEDVPQMHIQNWVDSVSKSSFGGRVTLTNTVVVVSADSIVGHAVVVKRNNNCVALPFSRRISLS”, the “soluble on expression in E. coli” value is reported as “not soluble”. With “HGDGPGNAVQEIMIPASKAGLVIGKGGETIKQLQERAGVKMVMIQDGPQNTGADKPLRITGDPYKVQQAKEMVLELIRDQG” the “soluble on expression in E. coli” value was “soluble”. For “SLAPPAPPVSYGVEEDVFHPVRAKQGMVASVDATATQVGVDILKEGGNAVDAAVAVGYALAVTHPQAGNLGGGGFMLIRSKNGNTTAIDFREMAPAKATRDMFLDDQGNPDSKKSLTSHLASGTPGTVAGFSLALDKYGTMPLNKVVQPAFKLARDGFIVNDALADDLKTYGSEVLPNHENSKAIFWKEGEPLKKGDTLVQANLAKSLEMIAENGPDEFYKGTIAEQIAQEMQKNGGLITKEDLAAYKAVERTPISGDYRGYQVYSMPPPSSGGIHIVQILNILENFDMKKYGFGSADAMQIMAEAEKYAYADRSEYLGDPDFVKVPWQALTNKAYAKSIADQIDINKAKPSSEIRPGKLAPYESNQTTHYSVVDKDGNAVAVTYTLNTTFGTGIVAGESGILLNNQMDDFSAKPGVPNVYGLVGGDANAVGPNKRPLSSMSPTIVVKDGKTWLVTGSPGGSRIITTVLQMVVNSIDYGLNVAEATNAPRFHHQWLPDELRVEKGFSPDTLKLLEAKGQKVALKEAMGSTQSIMVGPDGELYGASDPRSVDDLTAGY”, the “soluble on expression in E. coli” value was “soluble”. For “QDPDGLLGDKKDVGITCALIPADHDGVEIGERHDPLGSAFMNGPTRGEDVFIPMDWLIGGSDYAGKGWRMLVECLSAGRGISLPALGTAIGHLTTRTTGAYAYVRKQFGMSIGKFEGVAEAMGRIGGLTYLLEATRTLTTTSLDMKEKPGIVTAIAKYHMTEIARTILNDSFDIHAGRAIQDGPMNYLAKHYLGIPVAITVEGANILTRNLMIFGQGATRCHPYVLKEMEAAANPDSEQGAKEFDSLLFKH”, the “soluble on expression in E. coli” value was “not soluble”. For “SIHYTWQNALLDVSERLGVANNSVTLLQQKQANYVRAFADSYDFRTRINQGTPQDELQKWVTEQKKRYSLDFLSFQRVNSMENKFRFMDLTKRESFFDVLNREELEQLDPELAKRAEVPILADGGMEARGLVSRTVIPVYSQANDLIGFLDGGLLLNNSTVLVDQIRDLIYLSDNDRLRPVGTLTVFLDDLRVSTNVPLDSDHRLGRAIGTRVSAEVYNQVLSKGQQWVDRAYVYDAWYITAYQPIKDQYDNVIGMLYTGYLMWPFVKAYMTNIAE”, the “soluble on expression in E. coli” value was “not soluble”. In the case of “MTPIPFFNHMLITLLTYMNSTAIVSATDKLPYDDHHIVEDVAITLGLAIKTALGDKRGIKRFSHQIIPMDDALVLVSLDISNRGMAFVNLNLKRSEIGGLATENVPHFFQSFAYNSGITLHISQLSGYNTHHIIEASFKALGLALY”, the “soluble on expression in E. coli” value is reported as “soluble”. With “MGHHHHHHSHMSVMFDPDTAIYPFPPKPTPLSIDEKAYYREKIKRLLKERNAVMVAHYYTDPEIQQLAEETGGCISDSLEMARFGAKHPASTLLVAGVRFMGETAKILSPEKTILMPTLQAECSLDLGCPVEEFNAFCDAHPDRTVVVYANTSAAVKARADWVVTSSIAVELIDHLDSLGEKIIWAPDKHLGRYVQKQTGGDILCWQGACIVHDEFKTQALTRLQEEYPDAAILVHPESPQAIVDMADAVGSTSQLIAAAKTLPHQRLIVATDRGIFYKMQQAVPDKELLEAPTAGEGATCRSCAHCPWMAMNGLQAIAEALEQEGSNHEVHVDERLRERALVPLNRMLDFAATLRG” the “soluble on expression in E. coli” value was “soluble”. For “MGSDKIHHHHHHMQKTLNTKKANLAMERAGLTQTAVAESLAVSKEAVSQWLSSKSFPRPNKLLQLGKLLGLPFDELVIKEDPFTPKVAFRKKAGTKTKDHHIEKAQEMGRFLRHLVAYLPFDTLEMPPVLKSPSCEYDYLCKVTAKVREDINVGTAECIDFSHLIRRFSELQAVVVPVMWGVKQRHENAVHIHLPDSQSTWVYLNLDTNIHDFKFWMAHELGHCLSPSLEGDNAEDFADAFAATLLYPNELAEKAYTSINAQPSPAAKIAHVVDLADQFTISPYTVLGQANKYALSTGRNEIKLSNSFHGAVTNFNKRYKNLSEALFGDAELDEHGKPSAKEYINKAETAFETPFFELLRKYLKEHDKGPGFVQTVLDMPLLDARSIHTELT”, the “soluble on expression in E. coli” value was “not soluble”. For “GMGKGKSAIESQIRMLKLAKEIVEEVASSFPNLEEVYIFGSRARGDYLDTSDIDILFVFKGIKEMNVFDRMYMVSRFIRGNVDYIVLDEGEKDRVKDKVLFWKREKGFVLL”, the “soluble on expression in E. coli” value was “soluble”. With “MDVLIIGGGEAGLVAGCRALTMGQKVILVEKNGYLGGATILNGSNVVGTGSDVAAQIFDNNHDTPEMLAQDVARESLETNYPALTDLMVHNIGPAIDFISKFADLHYQKAQTQTPEHSINRQIELPSASSYEFIQKVSKAFAAAGGQIMLDTRVEKLMLDNDKKLRGVIAAQKDQTVNIKARSVVLAAGGHGANQKMRGTESEGIDYYGPMTSTGDAYQFNGDLDLQTHDLGWYKLYPHGVEVEPGVAKLTTYASKQATDMGAIYVNSKGDRIVNESNVYTTFRNAILKQADKVAYLVMDERTWKKVYDLLILHDFTPEEIKSFFENKGKRPVFVKGSLESAAEQAGIVVDELVQTVKNYQGYVQDGHDHDFGRDPKYLHQFEGETFYIIEQRDRFATTLGGYSVDADNLQLVTTKNAPVANYFGAGEIIGGANGHDSMPSMMNTWGISSGYVAGAAASENAQRQATAGAAALEHHHHHH” the “soluble on expression in E. coli” value was “not soluble”.

Source: the DeepSol protein solubility set
